IntAct's records for PubMed 17998537

B1: Mitochondrial division protein 1 (Saccharomyces cerevisiae), P47025 (parent)
chain: MSVNDQITHIGKTLSTTASAFLNYQKSNSNTQDVLTNNGPYKNLLSNTVNNASSTSYFYKRTEHGRFVKNASNTFEDIYSKTRRGDVFRNKFTDNKTCFRMLTYISDDLLNEIPTKEGLKSDADGKLLTEGGENENLRKNASKKETSLFQGFKSYLPIAELAIENTERLNYDTNGTSGTVGAKDVMSKTNERDEIHTELPNFQDSFLIPPGVETKKISSSYSPSALKSFSQTLVNSLEFLNIQKNSTLSEIRDIEVEVENLRQKKEKLLGKIANIEQNQLLLEDNLKQIDDRLDFLEEYGLEVIEANSDENAEDDGMSERKALKNDAIRNEGVTTESISSEASNLPPRRRQQLRDDNSLNRLGAFYSKSKKRHRKSFPTFQQLYEPGTKIGSIMSTHDDFLTCLDFDAPFGTLCTAGYLDHTVKIWDLSKQNKIGELAGHLATINCMQINRDYGTLVTGGRDAALKLWNLNLAQQLYQETQNLTSPTNHIDSPCVHTFEAHTDEVTALSLDPSFLVSGSQDRTIRQWDLRSGKCLQTIDLSFANVLTTSTNVDLSKSTLLTQRNERPSIGALQSFDAALATGTKDGVVRLWDLRSGKVIRTLKGHTDAITSLKFDSACLVTGSYDRTVRIWDLRTGLLNKFHAYSAPVLSLDLFQENAAVVVADEPSVQIYDSEKDESWSCVEQGNETSVSTVKYKENYMVEGRENGDVNIWAV
partner: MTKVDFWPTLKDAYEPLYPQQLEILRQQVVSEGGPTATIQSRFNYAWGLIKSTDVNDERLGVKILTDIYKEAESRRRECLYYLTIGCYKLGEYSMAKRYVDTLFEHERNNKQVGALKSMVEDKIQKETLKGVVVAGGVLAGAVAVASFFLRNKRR
B2: CCR4-associated factor 4 (Saccharomyces cerevisiae), P36130 (parent)
chain: MGSGDTRGESSLVAKPIEIILNKLPHAILAQQQFQKYITSPIYRYLSKLLLFREVAWPESTKDTQKGQVGIFSFQNNYADSATTFRILAHLDEQRYPLPNGAAEKNLPSLFEGFKATVSIIQQRLLLDNVDGATNSDKEKYVQLPDINTGFVNKTYSRIDLTHLLEDVETNVENLSINKTLEMDELTRLDSMINELESRKLKILERVKHIDSKSTNLENDVTLIKDRINFIEEYNLEADREQSLRKQMEEERSSEASSFTQNEEAISSLCDVESKDTRLKDFYKMPHEKSHDKNRQIISETYSRNTTAFRMTIPHGEHGNSITALDFDTPWGTLCSSSYQDRIVKVWDLNHGIQVGELPGHLATVNCMQIDKKNYNMLITGSKDATLKLWDLNLSREIYLDHSPLKEKTEEIVTPCIHNFELHKDEITALSFDSEALVSGSRDKKIFHWDLTTGKCIQQLDLIFTPTHSDIKMPARSLNNGACLLGTEAPMIGALQCYNSALATGTKDGIVRLWDLRVGKPVRLLEGHTDGITSLKFDSEKLVTGSMDNSVRIWDLRTSSILDVIAYDLPVSSLDFDGKLITVGANEGGVNVFNMERDEHWMTPEPPHSLDGDELSRRIAIVKYKDGFLINGHNDGDINVWTL
partner: B1 partner
B3: Mitochondrial fission 1 protein (Saccharomyces cerevisiae), P40515 (parent)
chain: B1 partner
partner: B1 chain

Variants of: B1
Conditions: with fis1_yeast FIS1, P40515

Row | effect of a mutation on the interaction | Variant
1 | disrupting interaction | L148A
2 | disrupting interaction | F152A
3 | disrupting interaction | F149A
4 | disrupting interaction | I105A
5 | disrupting interaction | F99A;R100A

Variants of: B2
Conditions: with fis1_yeast FIS1, P40515

Row | effect of a mutation on the interaction | Variant
6 | disrupting interaction strength | L88A
7 | disrupting interaction strength | F114A
8 | disrupting interaction strength | F85A;R86A
9 | disrupting interaction strength | L110A
10 | disrupting interaction strength | F111A

Variants of: B3
Conditions: with mdv1_yeast MDV1, P47025

Row | effect of a mutation on the interaction | Variant
11 | disrupting interaction | MTKVDFWPTLKDAYEPLYPQQLEILRQQVVSEGGPTATIQSRAAYAWGLIKSTDVNDERLGVKILTDIYKEAESRRRECLYYLTIGCYKLGEYSMAKRYVDTLFEHERNNKQVGALKSMVEDKIQKETLKGVVVAGGVLAGAVAVASFFLRNKRR
12 | disrupting interaction | MTKVDFWPTLKDAYEPLYPQQLEAARQQVVSEGGPTATIQSRFNYAWGLIKSTDVNDERLGVKILTDIYKEAESRRRECLYYLTIGCYKLGEYSMAKRYVDTLFEHERNNKQVGALKSMVEDKIQKETLKGVVVAGGVLAGAVAVASFFLRNKRR
13 | disrupting interaction | MTKVDFWPTLKDAYEPLYPQQLEILRQQVVSEGGPTATIQSRFNYAAGLIKSTDVNDERLGVKILTDIYKEAESRRRECLYYLTIGCYKLGEYSMAKRYVDTLFEHERNNKQVGALKSMVEDKIQKETLKGVVVAGGVLAGAVAVASFFLRNKRR
